Experimental data taken from patent US20210340530A1 (INTELLIA THERAPEUTICS, published 2021).

Tests used:
[1] = biological target: T1, … (RMF) WT1 peptide pulsed on target cells (HLA-02.01 positive T2 cell line; OCI-AML3); assay: cell-based or functional assay
[2] = biological target: T2, … (VLD) WT1 peptide pulsed on target cells (HLA-02.01 positive T2 cell line; OCI-AML3); assay: cell-based or functional assay
[3] = biological target: T2, … (VLD) WT1 peptide pulsed on target …; assay: cell-based or functional assay; remark: listed apart in the source
[4] = biological target: T1, … (RMF) WT1 peptide pulsed on target …; assay: cell-based or functional assay; remark: listed apart in the source
[5] = biological target: T2, … (VLD) WT1 peptide pulsed on target …; assay: cell-based or functional assay; remark: listed apart in the source
[6] = biological target: T2, … (VLD) WT1 peptide pulsed on target …; assay: cell-based or functional assay; remark: listed apart in the source
[7] = biological target: T3, VLD-Tetramer (pMHC tetramer with WT1 peptide …); assay: flow cytometry, VLD-Tetramer staining of engineered T cells; TRAC RNP only
T3 construct: Staining reagent; also called VLD (Wilms' tumor antigen) tetramer; TCR specific pMHC tetramer
Experimental: (§1) Four to 12 days after RNP nucleofection, edited T cells (200 ul/200,000 cells) were collected in a 96 well round bottom plate and spun down at 500 g for 5 minutes. Cells were then resuspended in an antibody mixture containing a combination of antibodies targeting CD3, CD4, CD8, CD45RO, CD45RA, CD27, CCR7, CD62L, and/or the TCR specific pMHC tetramer or TCR specific Vbeta chain antibody. The mixture was incubated for 45 minutes at room temperature in the dark. Samples were spun down at 500 g for 5 minutes, cell pellets collected, and resuspended in 1:10,000 DAPI (Biolegend—#422801) in FACS buffer. Flow cytometry was then performed using the cytoflex according to the manufacturer's instructions.
(§2) T cells were evaluated with additional engineered TCRs for the impact of endogenous beta chains on pairing of both the inserted alpha chain and inserted beta chain. The experiment was performed as described herein except tetramer staining was used to measure MFI and the AAV inserts in Table 31 were used for transduction.

[8] = biological target: T1, … (RMF) WT1 peptide pulsed on target …; assay: cell-based or functional assay; remark: listed apart in the source
[9] = biological target: T2, … (VLD) WT1 peptide pulsed on target …; assay: cell-based or functional assay; remark: listed apart in the source
[10] = biological target: T3, VLD-Tetramer (pMHC tetramer with WT1 …); assay: flow cytometry, VLD-Tetramer staining of engineered T cells; TRAC + TRBC RNP
Experimental: as §1, §2

B1: TCR-A (WT1-specific T-cell receptor) (TCR)
TCR alpha: SQQPVQSPQAVILREGEDAVINCSSSKALYSVHWYRQKHGEAPVFLMILLKGGEQKGHEKISASFNEKKQQSSLYLTASQLSYSGTYFCGTAWINDYKLSFGAGTTVTVRANIQNPDPAVYQLRDSKSSDKSVCLFTDFDSQTNVSQSKDSDVYITDKTVLDMRSMDFKSNSAVAWSNKSDFACANAFNNSIIPEDTFFPSPESSCDVKLVEKSFETDTNLNFQNLSVIGFRILLLKVAGFNLLMTLRLWSS
TCR beta: DAGVIQSPRHEVTEMGQEVTLRCKPISGHDYLFWYRQTMMRGLELLIYFNNNVPIDDSGMPEDRFSAKMPNASFSTLKIQPSEPRDSAVYFCASRKTGGYSNQPQHFGDGTRLSILEDLKNVFPPEVAVFEPSEAEISHTQKATLVCLATGFYPDHVELSWWVNGKEVHSGVSTDPQPLKEQPALNDSRYCLSSRLRVSATFWQNPRNHFRCQVQFYGLSENDEWTQDRAKPVTQIVSAEAWGRADCGFTSESYQQGVLSATILYEILLGKATLYAVLVSALVLMAMVKRKDSRG
notes: P2A remnant on the beta chain is not described; also called AV11-TCR-A; TCR-A (no cys)
Caspase 3/7 integrated intensity; TRAC only; 500 nM RMF; T2 [1]: 7340
Caspase 3/7 integrated intensity; TRAC/TRBC; 500 nM RMF; T2 [1]: 280000
Caspase 3/7 integrated intensity; TRAC only; 0 nM VLD; T2 [2]: 9040
Caspase 3/7 integrated intensity; TRAC only; 0.005 nM VLD; T2 [2]: 9180
Caspase 3/7 integrated intensity; TRAC only; 0.05 nM VLD; T2 [2]: 16900
Caspase 3/7 integrated intensity; TRAC only; 0.5 nM VLD; T2 [2]: 38800
Caspase 3/7 integrated intensity; TRAC only; 5 nM VLD; T2 [2]: 137000
Caspase 3/7 integrated intensity; TRAC only; 50 nM VLD; T2 [2]: 207000
Caspase 3/7 integrated intensity; TRAC only; 500 nM VLD; T2 [2]: 233000
Caspase 3/7 integrated intensity; TRAC/TRBC; 0 nM VLD; T2 [2]: 381000
Caspase 3/7 integrated intensity; TRAC/TRBC; 0.005 nM VLD; T2 [2]: 374000
Caspase 3/7 integrated intensity; TRAC/TRBC; 0.05 nM VLD; T2 [2]: 1.13e+06
Caspase 3/7 integrated intensity; TRAC/TRBC; 0.5 nM VLD; T2 [2]: 1.17e+06
Caspase 3/7 integrated intensity; TRAC/TRBC; 5 nM VLD; T2 [2]: 1.33e+06
Caspase 3/7 integrated intensity; TRAC/TRBC; 50 nM VLD; T2 [2]: 1.2e+06
Caspase 3/7 integrated intensity; TRAC/TRBC; 500 nM VLD; T2 [2]: 1.57e+06
IL2 release; TRAC only; 0 nM VLD; T2 [3]: 2.26 pg/mL
IL2 release; TRAC only; 0.005 nM VLD; T2 [3]: 2250 pg/mL
IL2 release; TRAC only; 0.05 nM VLD; T2 [3]: 2050 pg/mL
IL2 release; TRAC only; 0.5 nM VLD; T2 [3]: 2010 pg/mL
IL2 release; TRAC only; 5 nM VLD; T2 [3]: 4270 pg/mL
IL2 release; TRAC only; 50 nM VLD; T2 [3]: 7060 pg/mL
IL2 release; TRAC only; 500 nM VLD; T2 [3]: 8380 pg/mL
IL2 release; TRAC/TRBC; 0 nM VLD; T2 [3]: 314 pg/mL
IL2 release; TRAC/TRBC; 0.005 nM VLD; T2 [3]: 304 pg/mL
IL2 release; TRAC/TRBC; 0.05 nM VLD; T2 [3]: 227 pg/mL
IL2 release; TRAC/TRBC; 0.5 nM VLD; T2 [3]: 200 pg/mL
IL2 release; TRAC/TRBC; 5 nM VLD; T2 [3]: 494 pg/mL
IL2 release; TRAC/TRBC; 50 nM VLD; T2 [3]: 1180 pg/mL
IL2 release; TRAC/TRBC; 500 nM VLD; T2 [3]: 1510 pg/mL
% CD4+ CD107a+; TRAC/TRBC; 50 nM RMF; T2 [4]: 4.3%
% CD8+ CD107a+; TRAC/TRBC; 50 nM RMF; T2 [4]: 22.1%
% CD4+ CD107a+; TRAC/TRBC; 0 nM VLD; T2 [5]: 4.45%
% CD4+ CD107a+; TRAC/TRBC; 0.005 nM VLD; T2 [5]: 4.64%
% CD4+ CD107a+; TRAC/TRBC; 0.05 nM VLD; T2 [5]: 4.68%
% CD4+ CD107a+; TRAC/TRBC; 0.5 nM VLD; T2 [5]: 4.23%
% CD4+ CD107a+; TRAC/TRBC; 5 nM VLD; T2 [5]: 11.8%
% CD4+ CD107a+; TRAC/TRBC; 50 nM VLD; T2 [5]: 21.1%
% CD8+ CD107a+; TRAC/TRBC; 0 nM VLD; T2 [5]: 21.9%
% CD8+ CD107a+; TRAC/TRBC; 0.005 nM VLD; T2 [5]: 37.3%
% CD8+ CD107a+; TRAC/TRBC; 0.05 nM VLD; T2 [5]: 64.1%
% CD8+ CD107a+; TRAC/TRBC; 0.5 nM VLD; T2 [5]: 73%
% CD8+ CD107a+; TRAC/TRBC; 5 nM VLD; T2 [5]: 75.8%
% CD8+ CD107a+; TRAC/TRBC; 50 nM VLD; T2 [5]: 76.2%
IFN-gamma release; TRAC/TRBC; 50 nM VLD; T2 [6]: 40200
IFN-gamma release; TRAC/TRBC; 500 nM VLD; T2 [6]: 47600
IFN-gamma release; only TRAC; 50 nM VLD; T2 [6]: 28100
IFN-gamma release; only TRAC; 500 nM VLD; T2 [6]: 31500
Mean % Tetramer+ (CD4+) [7]: 7.6%
Mean % Tetramer+ (CD8+) [7]: 12.7%
Mean Tetramer MFI (CD4+) [7]: 10100 MFI
Mean Tetramer MFI (CD8+) [7]: 21900 MFI
% CD4+ TNFa+ IFNg+; TRAC/TRBC; 50 nM RMF; T2 [8]: 1.6%
% CD8+ TNFa+ IFNg+; TRAC/TRBC; 50 nM RMF; T2 [8]: 10%
% CD4+ TNFa+ IFNg+; TRAC/TRBC; 0 nM VLD; T2 [9]: 1.1%
% CD4+ TNFa+ IFNg+; TRAC/TRBC; 0.005 nM VLD; T2 [9]: 1.6%
% CD4+ TNFa+ IFNg+; TRAC/TRBC; 0.05 nM VLD; T2 [9]: 1.2%
% CD4+ TNFa+ IFNg+; TRAC/TRBC; 0.5 nM VLD; T2 [9]: 1.8%
% CD4+ TNFa+ IFNg+; TRAC/TRBC; 5 nM VLD; T2 [9]: 11.1%
% CD4+ TNFa+ IFNg+; TRAC/TRBC; 50 nM VLD; T2 [9]: 25.1%
% CD8+ TNFa+ IFNg+; TRAC/TRBC; 0 nM VLD; T2 [9]: 9.4%
% CD8+ TNFa+ IFNg+; TRAC/TRBC; 0.005 nM VLD; T2 [9]: 21%
% CD8+ TNFa+ IFNg+; TRAC/TRBC; 0.05 nM VLD; T2 [9]: 53%
% CD8+ TNFa+ IFNg+; TRAC/TRBC; 0.5 nM VLD; T2 [9]: 74.3%
% CD8+ TNFa+ IFNg+; TRAC/TRBC; 5 nM VLD; T2 [9]: 79.8%
% CD8+ TNFa+ IFNg+; TRAC/TRBC; 50 nM VLD; T2 [9]: 81.3%
Mean % Tetramer+ (CD4+) [10]: 48%
Mean % Tetramer+ (CD8+) [10]: 51.2%
Mean Tetramer MFI (CD4+) [10]: 11300 MFI
Mean Tetramer MFI (CD8+) [10]: 23700 MFI

B2: TCR-F (WT1-specific T-cell receptor) (TCR, V domains shown)
V domain 1: AQKITQTQPGMFVQEKEAVTLDCTYDTSDPSYGLFWYKQPSSGEMIFLIYQGSYDQQNATEGRYSLNFQKARKSANLVISASQLGDSAMYFCAISGNTPLVFGKGTRLSVIA
V domain 2: AAGVIQSPRHLIKEKRETATLKCYPIPRHDTVYWYQQGPGQDPQFLISFYEKMQSDKGSIPDRFSAQQFSDYHSELNMSSLELGDSALYFCASSLRGGLEKLFFGSGTQLSVLE
notes: also called AV14-TCR-F
Mean % Tetramer+ (CD4+) [7]: 78.9%
Mean % Tetramer+ (CD8+) [7]: 61%
Mean Tetramer MFI (CD4+) [7]: 67300 MFI
Mean Tetramer MFI (CD8+) [7]: 50100 MFI
Mean % Tetramer+ (CD4+) [10]: 81.8%
Mean % Tetramer+ (CD8+) [10]: 76.6%
Mean Tetramer MFI (CD4+) [10]: 231000 MFI
Mean Tetramer MFI (CD8+) [10]: 172000 MFI
